According to patent US20040033228A1:

Target: TNF (UniProt P01375)
Assay: cell-based or functional assay

Sequence of UniProt P01375 (P01375 77-233 limits assumed): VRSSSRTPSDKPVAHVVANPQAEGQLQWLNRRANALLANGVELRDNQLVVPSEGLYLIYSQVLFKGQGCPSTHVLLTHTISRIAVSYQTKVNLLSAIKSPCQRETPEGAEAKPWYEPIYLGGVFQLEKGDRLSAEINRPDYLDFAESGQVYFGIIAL

For D2E7 antibody, the In vitro TNF neutralization test; with 0.1% polysorbate 80; fast thaw -80° C. in water bath was 95.8, the In vitro TNF neutralization test; with 0.1% polysorbate 80; no freeze/thaw was 112 and the In vitro TNF neutralization test; with 0.1% polysorbate 80; slow thaw -30° C. in refrigerator was 96.2. It also gave an In vitro TNF neutralization test; with 0.1% polysorbate 80; slow thaw -80° in refrigerator of 96.7, an In vitro TNF neutralization test; without 0.1% polysorbate 80; fast thaw -30° C. in water bath of 118 and an In vitro TNF neutralization test; without 0.1% polysorbate 80; fast thaw -80° C. in water bath of 120. The In vitro TNF neutralization test; without 0.1% polysorbate 80; no freeze/thaw was 118, the In vitro TNF neutralization test; without 0.1% polysorbate 80; slow thaw -30° C. in refrigerator was 124 and the In vitro TNF neutralization test; without 0.1% polysorbate 80; slow thaw -80° in refrigerator was 103.
